Results on four molecules are retold here after patent US20210040232A1.

Test [1] addresses human CTLA-4 (amino acids M1-N223) on stably transfected VI-fibroblast cells (human) (UniProt P16410). In words: ECL cell binding, VI-fibroblast/hCTLA-4 cells.
Test [2] addresses mf CTLA-4 extracellular domain (aa 1-161) fused to the trans-membrane and cytoplasmic domain of hCD300a (aa 181-299), on Jurkat/NFAT-Luc cells (Macaca fascicularis; human) (UniProt G7PL88). In words: ECL cell binding, Jurkat/NFAT-Luc/mfCTLA-4-hCD300a cells.
Test [3] has the same target. In words: cell-based or functional assay.

What is called EC50 is the concentration at which the effect is half-maximal.

Chain of mf CTLA-4 extracellular domain (aa 1-161) fused to the trans-membrane and cytoplasmic domain of hCD300a (aa 181-299), on Jurkat/NFAT-Luc cells (Macaca fascicularis; human) (Q9UGN4 other isoform, or with tags, fused parts or gaps, form in doubt): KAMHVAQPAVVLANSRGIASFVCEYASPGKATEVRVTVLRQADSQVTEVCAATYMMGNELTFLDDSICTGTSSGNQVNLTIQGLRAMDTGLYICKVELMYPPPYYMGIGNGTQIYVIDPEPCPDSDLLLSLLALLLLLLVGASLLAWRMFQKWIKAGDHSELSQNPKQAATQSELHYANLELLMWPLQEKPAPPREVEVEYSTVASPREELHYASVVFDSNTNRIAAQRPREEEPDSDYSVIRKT
Chain of human CTLA-4 (amino acids M1-N223) on stably transfected VI-fibroblast cells (human) (P16410 36-223 limits assumed): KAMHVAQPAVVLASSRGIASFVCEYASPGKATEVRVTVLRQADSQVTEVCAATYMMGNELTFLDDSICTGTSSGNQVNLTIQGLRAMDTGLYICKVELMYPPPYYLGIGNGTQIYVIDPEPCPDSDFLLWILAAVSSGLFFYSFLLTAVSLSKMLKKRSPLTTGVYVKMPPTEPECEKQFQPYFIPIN

B1: H1H19264P (antibody, human IgG1, V domains shown)
VH: QVQLVQSGAEVKKPGASVKVSCKASDYTFTSYGISWVRQAPGQGLEWMGWISVYNGNINYAQKFKGRVTMTTDTSTSTAYMELRSLRSDDMAVYYCARVTQFGMDVWGQGTTVTVSS
VL: DIQMTQSPSSLSASVGDRVTITCRASQSISSNLNWYQQNPGKAPKLLIYTTSSLQGGVPSRFSGSGSGTDFTLTISSLQPEDFATYYCQQSFRTPFTFGPGTKVDIK
Consider B1, for which the ratio of RLU signal to parental VI-fibroblast at 0.4 nM Ab in test [1] turned out to be 1.

B2: H1H19313P (antibody, human IgG1, V domains shown)
VH: QITLKESGPTLVKPTQTLTLTCTFSGFSLSTSGVGVGWIRQPPGVALEWLALIYWNDDKRFSPSLKSRLTITKDTSKNQVVLTMTNMDPVDTATYYCAHRRLGLYYFDYWGQGTLVTVSS
VL: DIQLTQSPSFLSASVGDRVTITCWASQGISSYLAWYQQKPGKAPKLLIYAASTLQSGVPSRFSGSGSGTEFTLTISSLQPEDFATYYCQQVHIYPFTFGPGTKVDIK
B2: the EC50 in test [2] came to 0.14 nM. In test [3], this molecule returned an EC50, T-cell/APC IL-2 release assay, APC HEK293/hCD20/hCD86 of 21.9 nM; an EC50, T-cell/APC NFAT-luciferase assay, +Fc Block of 1.84 nM; an EC50, T-cell/APC NFAT-luciferase assay, -Fc Block of 1.34 nM; a Fold induction of IL-2 at 100 nM, APC HEK293/hCD20/hCD86 of 6.1 fold.

B3: H1H19303P (antibody, human IgG1, kappa, V domains shown)
VH: EVQLVESGGGLVQPGGSLRLSCAASGFTFSNYEMSWVRQAPGKGLEWVSSIRTSGTTKYYADSMKGRFTISRDNAKNSLYLQMNSLRAEDTAVYYCAGGGTFLHYWGQGTLVTVSS
VL: DIQMTQSPSSVSASVGDRVTITCRASQGIASYLAWYQQKPGKAPKLLIYAASSLQTGVPSRFSGSGYGTDFTLTISSLQPEDFATYYCQQAKSFPMYTFGQGTKLEIKR
On to B3, for which the EC50 in test [2] stood at 0.11 nM. In test [3], this molecule yielded an EC50, T-cell/APC IL-2 release assay, APC HEK293/hCD20/hCD86 of 40.9 nM; an EC50, T-cell/APC NFAT-luciferase assay, +Fc Block of 1.77 nM; an EC50, T-cell/APC NFAT-luciferase assay, -Fc Block of 1.28 nM; a Fold induction of IL-2 at 100 nM, APC HEK293/hCD20/hCD86 of 4.4 fold.

B4: H1H19273P (antibody, human IgG1, V domains shown)
VH: QITLKESGPTLVKPTQTLTLTCTFSGFSLSTSGVGVGWIRQSPGRALEWLALIYWNDHERYSPSLKSRLTITKDTSKNLVVLAMANMDPVDTATYFCAHRNIEYRRSYFFDYWGQGTLVTVSS
VL: DIQMTQSPSSVSASVRDRVTVTCRASQDINNWLAWYQQKPGKAPKLLIYAASSLQSGVPSRFSGSGSGTDFTLTISSLQPEDFATYYCQQANTFPFTFGPGTKVDIK
In test [2], B4 gave an EC50 of 0.22 nM. Besides, in test [3], the EC50, T-cell/APC IL-2 release assay, APC HEK293/hCD20/hCD86 was 11.4 nM; the EC50, T-cell/APC NFAT-luciferase assay, +Fc Block came to 1.83 nM; the EC50, T-cell/APC NFAT-luciferase assay, -Fc Block came to 3.05 nM; the Fold induction of IL-2 at 100 nM, APC HEK293/hCD20/hCD86 is 6.5 fold.
